Experimental data reported in patent US20110097323A1 (published 2011).

T1: CD32B (FcγRII-B) (UniProt P31994 43-217, limits assumed)
T1 construct: No species or construct stated
T1 sequence (looked up): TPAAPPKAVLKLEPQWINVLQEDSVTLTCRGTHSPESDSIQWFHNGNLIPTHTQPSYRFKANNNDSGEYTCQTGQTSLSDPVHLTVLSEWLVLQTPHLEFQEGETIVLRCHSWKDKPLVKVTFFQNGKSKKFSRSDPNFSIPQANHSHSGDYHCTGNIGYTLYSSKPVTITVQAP


Experiments:
CD16A F158 = CD16A F158 (human, UniProt P08637 17-208, limits assumed); assay: Table 3; relative to wild-type Fc; method not stated
CD16A V158 = CD16A V158 (human, UniProt P08637 17-208, limits assumed); assay: as above
CD32B (FcγRII-B) = biological target: T1, CD32B (FcγRII-B); assay: as above
HER-2 = biological target: T2, HER-2 (UniProt P04626 23-652, limits assumed); assay: SPR (BIAcore 1000), HER-2 amine-coupled to chip, antibody injected at 6.25-200 nM
T2 construct: also called HER2/neu; erbB-2
Protocol: The kinetic parameters of the binding of eluted and purified antibodies were analyzed using a BIAcore assay (BIAcore instrument 1000, BIAcore Inc., Piscataway, N.J.) and associated software. HER-2 was immobilized on one of the four flow cells (flow cell 2) of a sensor chip surface through amine coupling chemistry (by modification of carboxymethyl groups with mixture of NHS/EDC) such that about 1000 response units (RU) of receptor was immobilized on the surface. Following this, the unreacted active esters were “capped off” with an injection of 1M Et-NH2.

human CD16A (FcγRIII-A) = human CD16A (FcγRIII-A) (human, UniProt P08637 17-208, limits assumed); assay: method not stated; reference not named (Fc-optimized against wild-type)
human CD16A (FcγRIII-A), sequence (P08637 17-208 limits assumed): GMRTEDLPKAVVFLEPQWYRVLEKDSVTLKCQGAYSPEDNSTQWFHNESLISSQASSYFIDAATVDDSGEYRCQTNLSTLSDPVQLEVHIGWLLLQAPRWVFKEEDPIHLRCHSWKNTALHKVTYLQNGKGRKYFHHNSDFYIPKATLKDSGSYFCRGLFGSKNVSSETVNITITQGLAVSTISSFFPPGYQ

CD16A F158, sequence (P08637 17-208 limits assumed): as above
CD16A V158, sequence (P08637 17-208 F176V limits assumed): as the sequence (P08637 17-208 limits assumed) above, with F160V counted along it

binding relative to wild-type Fc (fold) (CD16A F158)	binding relative to wild-type Fc (fold) (CD16A V158)	binding relative to wild-type Fc (fold) (CD32B (FcγRII-B))	koff (HER-2)	kon (HER-2)	fold increase in binding (human CD16A (FcγRIII-A))	Binder
1.74	1.52	0.87				Fc variant R255L D270E Y300L P396L (other, UniProt P01857-1 99-330, looked up, name in EU numbering, domain: Fc region; positions are EU index) EPKSCDKTHTCPPCPAPELLGGPSVFLFPPKPKDTLMISLTPEVTCVVVDVSHEEPEVKFNWYVDGVEVHNAKTKPREEQYNSTLRVVSVLTVLHQDWLNGKEYKCKVSNKALPAPIEKTISKAKGQPREPQVYTLPPSRDELTKNQVSLTCLVKGFYPSDIAVEWESNGQPENNYKTTPLVLDSDGSFFLYSKLTVDKSRWQQGNVFSCSVMHEALHNHYTQKSLSLSPGK
1.9	1.85	0.92				Fc variant R292P V305I P396L (other, UniProt P01857-1 99-330, looked up, name in EU numbering, domain: Fc region; positions are EU index) EPKSCDKTHTCPPCPAPELLGGPSVFLFPPKPKDTLMISRTPEVTCVVVDVSHEDPEVKFNWYVDGVEVHNAKTKPPEEQYNSTYRVVSILTVLHQDWLNGKEYKCKVSNKALPAPIEKTISKAKGQPREPQVYTLPPSRDELTKNQVSLTCLVKGFYPSDIAVEWESNGQPENNYKTTPLVLDSDGSFFLYSKLTVDKSRWQQGNVFSCSVMHEALHNHYTQKSLSLSPGK
			~3.2e-07 s⁻¹	170000 M⁻¹ s⁻¹		ch4D5-wild-type Fc (antibody, human IgG1, kappa, Chimeric 4D5 antibody; wild-type Fc; also called ch4D5-FcWT; ch4D5-FcWT (wild-type Fc)) heavy: not shown light: DIVMTQSHKFMSTSVGDRVSITCKASQDVNTAVAWYQQKPGHSPKLLIYSASFRYTGVPDRFTGSRSGTDFTFTISSVQAEDLAVYYCQQHYTTPPTFGGGTKVEIKRTVAAPSVFIFPPSDEQLKSGTASVVCLLNNFYPREAKVQWKVDNALQSGNSQESVTEQDSKDSTYSLSSTLTLSKADYEKHKVYACEVTHQGLSSPVTKSFNRGEC
					10 fold	ch4D5-FcMT1 (antibody, human IgG1, kappa) heavy: QVQLQQSGPELVKPGASLKLSCTASGFNIKDTYIHWVKQRPEQGLEWIGRIYPTNGYTRYDPKFQDKATITADTSSNTAYLQVSRLTSEDTAVYYCSRWGGDGFYAMDYWGQGASVTVSSASTKGPSVFPLAPSSKSTSGGTAALGCLVKDYFPEPVTVSWNSGALTSGVHTFPAVLQSSGLYSLSSVVTVPSSSLGTQTYICNVNHKPSNTKVDKRVEPKSCDKTHTCPPCPAPELLGGPSVFLLPPKPKDTLMISRTPEVTCVVVDVSHEDPEVKFNWYVDGVEVHNAKTKPPEEQYNSTLRVVSILTVLHQDWLNGKEYKCKVSNKALPAPIEKTISKAKGQPREPQVYTLPPSRDELTKNQVSLTCLVKGFYPSDIAVEWESNGQPENNYKTTPLVLDSDGSFFLYSKLTVDKSRWQQGNVFSCSVMHEALHNHYTQKSLSLSPGK light: DIVMTQSHKFMSTSVGDRVSITCKASQDVNTAVAWYQQKPGHSPKLLIYSASFRYTGVPDRFTGSRSGTDFTFTISSVQAEDLAVYYCQQHYTTPPTFGGGTKVEIKRTVAAPSVFIFPPSDEQLKSGTASVVCLLNNFYPREAKVQWKVDNALQSGNSQESVTEQDSKDSTYSLSSTLTLSKADYEKHKVYACEVTHQGLSSPVTKSFNRGEC
